In paper doi:10.1101/2024.02.21.581285 (bioRxiv, 2024):

Molecular target: the molecule itself
Test: cryo-EM structure

B1: D. melanogaster copia Gag protein (natural protein)
chain: not shown
stoichiometry N: 540 monomers
